For test [1], the target named is T1, mouse VEGFR2 (mouse, UniProt P35918 20-762, limits assumed). Kind of test: competition ELISA: human VEGF165 coated (250 ng/mL), antibody titrated with 1000 ng/mL mouse VEGFR2, bound mouse VEGFR2 detected; blocked ligand human VEGF165. As for the experimental part: ELISA blocking assay was conducted to confirm its VEGF blockade activity. Briefly, ELISA plates were coated with 250 ng/mL recombinant human VEGF165 in coating buffer and incubated at 4° C. overnight. After twice washing, blocking buffer was added and plates were incubated at room temperature for 2 hours. After three times washing, serial diluted chimeric-DC101 was added in dilution buffer and then 1000 ng/mL mouse VEGFR2 was added. Plates were incubated at room temperature for 3 hours. After three times washing, polyclonal anti-mouse VEGFR2 with mouse Fc (1: 1000) was added and plates were incubated at room temperature for 1 hour. After three times washing, goat anti-mouse HRP (1:5000 diluted) was added and plates were incubated at room temperature for 1 hour. Finally, after three times washing, TMB was added and 4 mins later 0.16 mol/L sulfuric acid was added to terminate the reaction. OD450 nm was read and recorded.
(An ELISA detects its analyte on a solid surface through an enzyme-linked reagent.)

The target of test [2] is T1, mouse VEGFR2. Kind of test: ELISA, mouse VEGFR2 coated (500 ng/mL), goat anti-human HRP. The protocol:
(§1) ELISA binding assay was conducted to confirm its binding affinity. Briefly, ELISA plates were coated with 500 ng/mL mouse VEGFR2 in coating buffer (0.16% Na₂CO₃, 0.30% NaHCO₃) and incubated at 4° C. overnight. After twice washing, blocking buffer (1% BSA, 1% goat serum, 0.05% Tween20 in PBS) was added and plates were incubated at room temperature for 2 hours. After three times washing, serial diluted chimeric-DC101 was added in dilution buffer (1% BSA, 1% goat serum, 0.01% Tween20 in PBS) and plates were incubated at room temperature for 3 hours. After three times washing, goat anti-human HRP (1:5000 diluted) was added and plates were incubated at room temperature for 1 hour. Finally, after three times washing, TMB was added and 4 mins later 0.16 mol/L sulfuric acid was added to terminate the reaction. OD450 nm was read and recorded.

In test [3] the target is T1, mouse VEGFR2. The test can be described thus: ELISA, 500 ng/mL mouse VEGFR2 coated, three lots. The protocol: as §1
Test [4] has as its target T2, Recombinant Human VEGFR2/KDR Protein, His tag (hVEGFR2-his) (human, UniProt P35968 20-764).
T2 construct: Expressed in HEK293, bought from ACRO Biosystems; also called human VEGFR2-his; Human VEGFR2/KDR-His
The test can be described thus: SPR (Biacore), antibody captured by anti-Fc, antigen 2.5-80 nM. As for the experimental part:
(§2) A CM5 sensor chip was activated in each flow cell by 7-min injection (10 μl/min) of freshly prepared 1:1 50 mM N-hydroxysuccinimide (NHS): 200 mM 1-ethyl-3-(3-dimethylaminopropyl)-carbodiimide (EDC). Then anti-human Fc antibody (GE Healthcare) in a concentration of 10 μg/ml in 10 mM sodium acetate buffer PH 5.0 was injected onto the activated chip at 10 μl/min (HBS-EP running buffer: 10 mM HEPES, 150 mM NaCl, 3.4 mM EDTA, 0.005% surfactant P20, pH 7.4). The remaining active coupling sites were blocked by 7 min injection of 1M ethanolamine at 10 μl/min. The immobilization level of each flow cell is ˜9000RU. Antibodies were captured in FC2 by anti-human Fc IgG or anti-mouse Fc (GE Healthcare) to 200˜300RU. FC1 was used as the reference cell. Antigen was injected at varying concentrations (2.5 nM, 5 nM, 10 nM, 20 nM, 40 nM and 80 nM) after capture of antibody. The association time for antibody binding antigen is 180s. Surface Regeneration condition is 120s at 10 μl/min in Gly pH1.5. The signals with captured antibody subtracted from those without captured antibody were calculated with Biacore X100 evaluation software ver. 2.0 (Biacore).
On the technique in general: SPR reads the build-up and loss of mass on a sensor chip optically.

Test [5] has as its target T2, Recombinant Human VEGFR2/KDR Protein, …. Kind of test: competition ELISA: hVEGFR2-his coated (1 ug/ml), antibody titrated, then 0.3 ug/ml hVEGF-A added and bound VEGF-A detected; blocked ligand hVEGF-A. The protocol: High-binding clear polystyrene 96 well plates were coated with 100 μl/well of 1 μg/ml hVEGFR2-his overnight at 4° C. After washing and blocking, serial diluted antibodies (from 10 μg/ml to 0.0006 μg/ml) were added and incubate for 1 hour at RT. 0.3 μg/ml hVEGF-A (Acrobiosystem, Cat #VE5-H4210) were added and incubated for 2 hour at RT. Then 100 μl/well of 0.25 μg/ml Biotinylated Rabbit Anti-human VEGF-A (Peprotech, Cat #400-P10Bt) was then added for detecting bound VEGF-A. Then 100 μl/well of a solution of HRP conjugated Neutravidin antibody (Pierce, Cat #31001) and TMB were added sequentially. Finally, reaction was terminated using 0.64M H₂SO₄ and plates were read at 450 nm.

For test [6] the target is unchanged. Kind of test: SPR (Biacore), antibody captured by anti-Fc, antigen 2.5-80 nM; second entry for mAb054 10D11F4D1F6 (r13; r11 gives another run). As for the experimental part:
as §2
Target sequence in this assay (P35968 other isoform, or with tags, fused parts or gaps): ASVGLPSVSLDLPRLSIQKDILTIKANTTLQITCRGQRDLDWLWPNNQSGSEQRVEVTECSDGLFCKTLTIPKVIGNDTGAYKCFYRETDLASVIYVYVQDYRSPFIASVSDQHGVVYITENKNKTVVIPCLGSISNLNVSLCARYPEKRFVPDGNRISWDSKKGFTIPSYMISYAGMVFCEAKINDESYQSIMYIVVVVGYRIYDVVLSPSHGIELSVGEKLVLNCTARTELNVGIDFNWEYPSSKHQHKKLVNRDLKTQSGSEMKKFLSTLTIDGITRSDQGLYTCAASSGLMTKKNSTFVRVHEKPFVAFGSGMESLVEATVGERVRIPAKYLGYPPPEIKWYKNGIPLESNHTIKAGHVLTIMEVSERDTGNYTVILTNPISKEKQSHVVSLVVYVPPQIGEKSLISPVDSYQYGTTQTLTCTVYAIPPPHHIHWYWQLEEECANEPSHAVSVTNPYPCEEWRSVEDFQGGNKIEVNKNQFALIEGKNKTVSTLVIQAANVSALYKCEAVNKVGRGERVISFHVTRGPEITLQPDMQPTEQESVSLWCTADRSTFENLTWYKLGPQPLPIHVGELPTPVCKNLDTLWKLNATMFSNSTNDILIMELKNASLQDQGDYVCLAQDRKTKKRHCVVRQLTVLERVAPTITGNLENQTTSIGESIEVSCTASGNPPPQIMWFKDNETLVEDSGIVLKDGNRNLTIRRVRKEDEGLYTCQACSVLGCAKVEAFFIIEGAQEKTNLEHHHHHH

For test [7] the target is unchanged. The test can be described thus: ELISA, hVEGFR2-his coated. As for the experimental part: Same protocol of Example 2 antibody screening by ELISA assay. Briefly, 0.5 μg/ml hVEGFR2-his was coated and serially diluted purified antibodies would bind to coated antigen. Using HRP conjugated goat anti-mouse Fc antibody could detect binding signals of each antibody.
The hybridoma antibodies have similar affinity to human.

For test [8] the target is unchanged. The test can be described thus: competition ELISA on coated hVEGFR2-his: hybridoma antibody titrated against 100 ng/ml chimeric 002C, anti-human IgG Fc-HRP.
Test [9] concerns the target T3, human VEGFR2 on HUVEC cells (human, UniProt P35968 20-1356).
T3 construct: also called hVEGFR2 on HUVEC
The test can be described thus: flow cytometry on HUVEC cells, percent shifted cells (Shift%), anti-mouse IgG-PE. As for the experimental part:
Log phase HUVEC cells were collected, counted and resuspended in FACS buffer (5% BSA+PBS). 2×10∧5 cells were added to each tube and then washed once with PBS (1500 rpm, 5 mins, RT). Then […] serial diluted VEGFR2 antibodies purified from hybridoma supernatant in FACS buffer were added into corresponding tubes and were incubated at 4° C. for 1 hr. The cells were then washed twice with 1 ml PBS, followed by adding 100 μl/tube of 2nd antibody (1:400 anti-mIgG (H+L)-PE, Cell signaling #8887) in FACS buffer. The cells were incubated at 4° C. for 0.5 hr and then washed twice with PBS, followed by resuspending cells in 600 μl PBS for each sample. The cells were then transferred into FACS tube and the bindings of the antibodies to the cells were detected using flow cytometry (BD Accuri C6) (see FIG. 3).
The percentage of positive binding cells was calculated and fit by Graphpad Prism Software.
(In flow cytometry, cells or beads pass a laser one at a time.)

The target of test [10] is T2, Recombinant Human VEGFR2/KDR Protein, …. The test can be described thus: competition ELISA on coated hVEGFR2-his: hybridoma antibody titrated against 100 ng/ml chimeric 054C, anti-human IgG Fc-HRP.

Positions count from the first letter of the chain named. Values joined by “and” are separate entries in the source; they are usually repeats but may differ in a detail not shown here. Identical values can stand only once. Where only a bound is given, the exact number is not on record here.

Results on three molecules are retold here after patent publication US20240209099A1 (SUZHOU TRANSCENTA THERAPEUTICS, published 2024).

T1 sequence (P35918 20-762 limits assumed): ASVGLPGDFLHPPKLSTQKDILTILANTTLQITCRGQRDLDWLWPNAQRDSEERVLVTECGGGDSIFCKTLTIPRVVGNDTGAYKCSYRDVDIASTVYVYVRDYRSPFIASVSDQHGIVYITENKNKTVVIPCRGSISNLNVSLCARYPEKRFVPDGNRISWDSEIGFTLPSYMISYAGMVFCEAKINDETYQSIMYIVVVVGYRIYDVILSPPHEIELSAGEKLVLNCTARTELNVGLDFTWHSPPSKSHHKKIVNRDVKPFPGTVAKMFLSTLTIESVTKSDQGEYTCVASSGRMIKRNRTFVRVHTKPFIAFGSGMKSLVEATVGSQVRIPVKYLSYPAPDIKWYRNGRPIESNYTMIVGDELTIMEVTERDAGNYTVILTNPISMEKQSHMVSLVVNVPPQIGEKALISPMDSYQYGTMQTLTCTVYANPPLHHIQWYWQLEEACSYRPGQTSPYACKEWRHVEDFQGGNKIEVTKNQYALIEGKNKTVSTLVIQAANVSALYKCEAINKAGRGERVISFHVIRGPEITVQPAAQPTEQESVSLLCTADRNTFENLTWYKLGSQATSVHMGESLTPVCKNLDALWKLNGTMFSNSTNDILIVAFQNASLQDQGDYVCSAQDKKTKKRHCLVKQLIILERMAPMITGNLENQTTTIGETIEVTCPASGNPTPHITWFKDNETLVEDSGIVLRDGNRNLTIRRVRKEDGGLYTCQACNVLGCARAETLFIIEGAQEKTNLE

B1: chimeric-DC101 (anti-mouse VEGFR2 antibody DC101 with human IgG1 Fc) (antibody, V domains shown)
VH: EVQLVETGGGLVQPGNSLKLSCATSGFIFSTTWMNWIRQTPGKRLEWLAQIEDKSNNYFISYSESVKGRFTISRDDSKSSVYLQMNNLKEEDTAIYYCSWKYRSNYYFDYWGQGVMVTVSS
VL: DIVLTQSPALAVSLEQRATISCKTSQNVDYYGISYLHWYQQKPGQQPKLLIYEGSNLASGIPARFSGSGSGTDFTLTIDPVEADDIVTYYCQQSKDYPYTFGAGTKLELKR
Take B1: the half-maximal inhibitory concentration (IC50) – broadly, the concentration needed to halve the response being measured – in [1] was 0.301 µg/mL and 0.28 µg/mL and 0.265 µg/mL. The EC50 – broadly, the concentration at which the effect is half-maximal – in test [2] is 0.0645 µg/mL and 0.0477 µg/mL and 0.0764 µg/mL; in test [3], about 0.06 µg/mL.

B2: 054 (mouse hybridoma antibody) (antibody, V domains shown)
VH: EVQLVESGGDLVKPGGSLKLSCAASGFTFSMYGMSWVRQTPDKRLEWVASISIGGSYTYYADSVEGRFIISRENAKNTLFLQMNSLKSEDTALYYCARELDGNYDYWGQGTTLTVSS
VL: HIMITQDELSNPVTFGESVSISCRSSKSLLYKDGKTYLNWFLQRPGQSPQLLIYLMSTRASGVSDRFSGSGSGTDFTLEISRVKAEDVGIYYCQQLVEYPFTFGSGTKLEIK
notes: Mouse antibody purified from hybridoma; also called mAb054; 10D11
With B2, the off-rate (koff) (in general, the rate constant with which the complex falls apart) in test [4] came to 9.12e-05 s⁻¹; in [6], 1.22e-05 s⁻¹. In test [4], the kon (as a rule, the rate constant with which the complex forms) is 91800 M⁻¹ s⁻¹ and 97000 M⁻¹ s⁻¹. Further, in test [5], the IC50 came to 0.0433 µg/mL. The EC50 in test [7] was determined as 0.00809 µg/mL; in test [9] it was 0.0612 µg/mL. Also, in [8], the “IC50 (read off the curve)” value is about 0.1 µg/mL.

B3: 048 (mouse hybridoma antibody) (antibody, V domains shown)
VH: B2 VH with I69T, L100M, Q109H
VL: B2 VL with H1D, I2V
notes: Mouse antibody purified from hybridoma; also called mAb048; 5G4
Take B3: in test [4], the Kd – broadly, the free concentration of one partner at which half of the binding sites on the other are occupied at equilibrium, for simple one-to-one binding – was under 1 pM; the off-rate (koff) is under 1e-07 s⁻¹; the kon amounted to 1.14e+06 M⁻¹ s⁻¹. Besides, the IC50 in [5] was 0.0416 µg/mL. The “IC50 (read off the curve)” value in [10] was about 0.2 µg/mL. For the same molecule, the EC50 in [7] was 0.0232 µg/mL. For the same molecule, in test [8], the “IC50 (read off the curve)” value was about 0.07 µg/mL. The EC50 in test [9] came out at 0.024 µg/mL.
